Experimental data taken from publication PMC3741163, “CCL18 Exhibits a Regulatory Role through Inhibition of Receptor and Glycosaminoglycan Binding” (PLoS ONE, 2013).
Values joined by “and” are separate entries in the source; they are usually repeats but may differ in a detail not shown here. Equal values may be shown once.

B1: CCL18 (ligand, human, UniProt P55774 21-89, looked up)
chain: AQVGTNKELCCLVYTSWQIPQKFIVDYSETSPQCPKPGVILLTKRGRQICADPNKKWVQKYISDLKLNA
notes: CCL18 chemokine, unlabelled; also called PARC; MIP-4; source: purchased from PeptroTech or produced as previously described [30]
B2: CCL11 (ligand)
chain: not shown
notes: CCL11 chemokine, unlabelled; source: purchased from PeptroTech or produced as previously described [30]

What was measured:
[1] = target: T1, CCR3 (UniProt P51677 1-355); assay: cell-based or functional assay
T1 sequence (looked up): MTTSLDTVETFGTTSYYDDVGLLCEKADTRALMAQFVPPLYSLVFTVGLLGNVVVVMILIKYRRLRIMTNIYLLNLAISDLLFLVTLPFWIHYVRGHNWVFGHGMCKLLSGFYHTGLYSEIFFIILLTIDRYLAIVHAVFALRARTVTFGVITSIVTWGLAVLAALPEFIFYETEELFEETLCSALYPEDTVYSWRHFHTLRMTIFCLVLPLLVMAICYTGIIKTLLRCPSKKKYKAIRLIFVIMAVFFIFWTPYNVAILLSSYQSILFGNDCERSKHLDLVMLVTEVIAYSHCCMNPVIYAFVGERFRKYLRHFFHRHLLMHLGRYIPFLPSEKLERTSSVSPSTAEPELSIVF

[2] = target: T1, CCR3; assay: cell-based or functional assay; remark: listed apart in the source
[3] = target: T1, CCR3; assay: radioligand binding; equilibrium competition on L1.2/CCR3 transfectants, tracer 0.1 nM 125I-CCL18, 0.1 x10^6 cells/well, competitor 10^-6 to 10^-12 M, room temperature 4 h, filtration; details: one partner purified
[4] = target: T1, CCR3; assay: radioligand binding; equilibrium competition on L1.2/CCR3 transfectants, tracer 0.1 nM 125I-CCL11, 0.1 x10^6 cells/well, competitor 10^-6 to 10^-12 M, room temperature 4 h, filtration; details: one partner purified

Row | Binder | EC50 of CCL11-induced Ca2+ release in L1.2/CCR3 transfectants in the presence of 0 nM to 5 µM CCL18 (EC50 69.93 nM without CCL18, rising with the concentration) [1] [nM] | IC50 of CCL18 for inhibition of chemotaxis of L1.2/CCR3 transfectants to 1 nM CCL11 (experiment shown in Figure 1A) [1] [nM] | IC50 of CCL18 for inhibition of chemotaxis of L1.2/CCR3 transfectants to 1 nM CCL11 (mean of 7) [2] [nM] | IC50 of CCL18 for inhibition of chemotaxis of L1.2/CCR3 transfectants to 10 nM CCL5 [2] [nM] | IC50 of CCL18 for inhibition of chemotaxis of L1.2/CCR3 transfectants to 10 nM CCL26 [2] [nM] | IC50 of CCL18 for inhibition of chemotaxis of L1.2/CCR3 transfectants to 100 nM CCL15 [2] [nM] | IC50 [3] | IC50 [4]
1 | B1 | 10500 | 397 | 318 | 40.8 | 123 | 2.9 | 6.8 nM and 8.86 nM | 
2 | B2 |  |  |  |  |  |  |  | 7.4 nM and 13.2 nM
